Columns and labels:
activated human MMP13 = activated human MMP13 (human, UniProt P45452 104-471); experiment: cell-based or functional assay
activated rat MMP13 = activated rat MMP13 (rat, UniProt P23097 99-466); experiment: cell-based or functional assay
activated dog MMP13 = activated dog MMP13 (dog, UniProt P45452 104-471 (human entry)); experiment: cell-based or functional assay
bovine MMP13 = bovine MMP13 (bovine, UniProt O77656 104-471); experiment: cell-based or functional assay
cynomolgus MMP13 = cynomolgus MMP13 (cynomolgus, UniProt A0A2K5U988 104-471); experiment: cell-based or functional assay
[1] = molecular target: T1, activated MMP13 (species not stated) (Homo sapiens (Human), UniProt P45452 104-471, Biotinylated in the TIMP-2 competition ELISA (sites not given). Activated form: pro-peptide removed.); experiment: TIMP-2 competition ELISA; Nanobody pre-incubated with 1.26 nM activated MMP13-biotin, binding to captured TIMP-2
T1 construct: campaign 4 ELISA; Probably human

B1: C0101PMP513C04 (VHH)
VHH: DVQLVESGGGLVQPGGSLRLSCAASGRTFSRYVMGWFRQAPGKEREFVAAINWSSGSTYYADSVKGRFTISRDNSKNTVYLQMNSLRPEDTAVYYCAADRRVYYDTYPNLRGYDYWGQGTLVTVSS
- IC50, human fluorogenic collagen assay (activated human MMP13): 18.1 nM
- IC50, human fluorogenic peptide assay (activated human MMP13): 7.7 nM
- IC50, rat fluorogenic peptide assay (activated rat MMP13): 16.2 nM
- IC50, dog fluorogenic peptide assay (activated dog MMP13): 35.2 nM
- IC50, bovine fluorogenic peptide assay (bovine MMP13): 48.7 nM
- IC50, cyno fluorogenic peptide assay (cynomolgus MMP13): 8 nM

B2: C0101PMP080A01 (VHH)
VHH: EVQLVESGGGLVQPGGSLRLSCAASGFTLAYYSIGWFRQAPGKEREGVSCISSGIDGSTYYADSVKGRFTISRDNAKNTMYLQMNNLKPEDTGVYYCAADPSHYYSEYDCGYYGMDYWGKGTLVTVSS
- IC50, human fluorogenic collagen assay (activated human MMP13): 10.8 nM
- IC50, human fluorogenic peptide assay (activated human MMP13): 5.2 nM
- IC50, rat fluorogenic peptide assay (activated rat MMP13): 4.2 nM
- IC50, dog fluorogenic peptide assay (activated dog MMP13): 6 nM
- IC50, bovine fluorogenic peptide assay (bovine MMP13): 6.4 nM
- IC50, cyno fluorogenic peptide assay (cynomolgus MMP13): 2.9 nM

B3: C0101PMP063F01 (VHH)
VHH: EVQLVESGGGLVQPGGSLRLSCSASTGIFRINTMGWHRQAPGKQRDLVATFTSDDNTKYADSVKGRFTISRDNAENTVYLQMNDLKPEDTAVYYCHATTVMYDSNSPDYWGQGTQVTVSS
notes: Profile 2 Nanobody
- IC50, human fluorogenic collagen assay (activated human MMP13): 134 nM
- IC50, human fluorogenic peptide assay (activated human MMP13): 82.4 nM
- IC50, rat fluorogenic peptide assay (activated rat MMP13): 20.2 nM
- IC50, dog fluorogenic peptide assay (activated dog MMP13): 73.9 nM
- IC50, bovine fluorogenic peptide assay (bovine MMP13): 191 nM
- IC50, cyno fluorogenic peptide assay (cynomolgus MMP13): 108 nM
- IC50 [1]: 177 nM

B4: C0101PMP520C04 (VHH)
VHH: DVQLVESGGGLVQPGGSLRLSCAASGRTFSSYAMGWFRQAPGKEREFVAAISWSGGSTYYSDSVKGRFTISRDNSKNTVYLQMNSLRPEDTAVYYCTAARGGVAGTDGPLGDYNYWGQGTLVTVSS
notes: Profile 2 Nanobody
- IC50, human fluorogenic collagen assay (activated human MMP13): 31.5 nM
- IC50, human fluorogenic peptide assay (activated human MMP13): 13.7 nM
- IC50, rat fluorogenic peptide assay (activated rat MMP13): 5.6 nM
- IC50, dog fluorogenic peptide assay (activated dog MMP13): 10.5 nM
- IC50, bovine fluorogenic peptide assay (bovine MMP13): 27.9 nM
- IC50, cyno fluorogenic peptide assay (cynomolgus MMP13): 32.5 nM
- IC50 [1]: 8 nM

B5: C0101PMP525C04 (VHH)
VHH: DVQLVESGGGLVQPGGSLRLSCAGSGSIFSGNAMGWYRQAPGKQRELVAAITSGGVTNYADSVKGRFTISRDNSKNTVYLQMNSLRPEDTAVYYCAADIRYPTGLVGDYWGQGTLVTVSS
notes: Profile 2 Nanobody
- IC50, human fluorogenic collagen assay (activated human MMP13): 90.5 nM
- IC50, human fluorogenic peptide assay (activated human MMP13): 58 nM
- IC50, rat fluorogenic peptide assay (activated rat MMP13): 157 nM
- IC50, dog fluorogenic peptide assay (activated dog MMP13): 90.8 nM
- IC50, bovine fluorogenic peptide assay (bovine MMP13): 108 nM
- IC50, cyno fluorogenic peptide assay (cynomolgus MMP13): 32.5 nM
- IC50 [1]: 36.2 nM

B6: C0101PMP059F06 (VHH)
VHH: EVQLVESEGGTVEPGESLRLACAAPGPGIRTNFMAWYRQAPEKEREMVASISRDGSTHYADSVKGRFTISSDNATSTFYLQMNSLQVEDTAVYYCATDPHILHNDRAGAFLVEDYDHWGQGTQVTVSS
notes: Profile 2 Nanobody
- IC50, human fluorogenic collagen assay (activated human MMP13): 140 nM
- IC50, human fluorogenic peptide assay (activated human MMP13): 56.3 nM
- IC50, rat fluorogenic peptide assay (activated rat MMP13): 38.9 nM
- IC50, dog fluorogenic peptide assay (activated dog MMP13): 82.6 nM
- IC50, bovine fluorogenic peptide assay (bovine MMP13): 108 nM
- IC50, cyno fluorogenic peptide assay (cynomolgus MMP13): 48.5 nM
- IC50 [1]: 51.8 nM

B7: C0101PMP529G11 (VHH)
VHH: DVQLVESGGGLVQPGGSLRLSCAASGSIFRINAMGWYRQAPGKQRELVAAIISGGTTYYADSVKGRFTISRDNSKNTVYLQMNSLRPEDTAVYYCYADIGWPYVLDYDFWGQGTLVTVSS
notes: Profile 2 Nanobody
- IC50, human fluorogenic collagen assay (activated human MMP13): 17.9 nM
- IC50, human fluorogenic peptide assay (activated human MMP13): 10.3 nM
- IC50, rat fluorogenic peptide assay (activated rat MMP13): 80.6 nM
- IC50, dog fluorogenic peptide assay (activated dog MMP13): 39.1 nM
- IC50, bovine fluorogenic peptide assay (bovine MMP13): 20.1 nM
- IC50, cyno fluorogenic peptide assay (cynomolgus MMP13): 7.1 nM
- IC50 [1]: 7.9 nM

Source: patent publication US12129308 (Merck KGaA, dated 2024)
